We go through 1 molecule from publication PMC10200994.

The target in the experiment is T1, STAT1 (unphosphorylated, wild-type), fluorophore fusion, P42224.
T1 chain: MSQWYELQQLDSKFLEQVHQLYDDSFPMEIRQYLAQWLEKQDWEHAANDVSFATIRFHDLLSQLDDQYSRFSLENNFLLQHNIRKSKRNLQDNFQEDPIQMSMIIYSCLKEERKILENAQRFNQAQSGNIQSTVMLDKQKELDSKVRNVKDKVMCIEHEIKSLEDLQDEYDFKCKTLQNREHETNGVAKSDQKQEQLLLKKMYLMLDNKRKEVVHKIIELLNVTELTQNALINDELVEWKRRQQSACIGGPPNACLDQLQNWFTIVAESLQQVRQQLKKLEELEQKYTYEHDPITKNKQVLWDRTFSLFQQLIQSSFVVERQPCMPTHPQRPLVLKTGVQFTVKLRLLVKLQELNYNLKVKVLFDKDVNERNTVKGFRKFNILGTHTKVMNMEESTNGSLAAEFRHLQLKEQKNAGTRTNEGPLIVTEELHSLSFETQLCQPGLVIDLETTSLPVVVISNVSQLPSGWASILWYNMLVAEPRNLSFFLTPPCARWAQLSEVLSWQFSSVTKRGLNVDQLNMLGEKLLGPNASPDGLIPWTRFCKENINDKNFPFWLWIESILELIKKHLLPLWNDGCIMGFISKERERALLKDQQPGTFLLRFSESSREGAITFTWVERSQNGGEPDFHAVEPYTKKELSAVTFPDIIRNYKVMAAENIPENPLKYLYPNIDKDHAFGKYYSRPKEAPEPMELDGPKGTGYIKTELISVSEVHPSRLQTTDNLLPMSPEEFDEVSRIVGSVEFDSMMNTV
The experiment can be described thus: co-localization assay (relocalisation of a test protein by a compartment-targeted bait, fluorescence microscopy); HeLa cells co-expressing bait (STAT-NES or STAT-NLS, or wild-type STAT2 with its own export activity; green) and test protein without heterologous signal (red); no cytokine; fixed 20 h after transfection; Pearson correlation coefficient rP in cells with equimolar to 4-fold excess of bait. To be noted: remark: other sources report otherwise.

B1: STAT1 (unphosphorylated, wild-type), fluorophore fusion, P42224 1-750 (natural protein)
chain: T1 chain
Molecule B1 showed a Pearson correlation coefficient rP (co-localization) above 0.94.
